Experimental data taken from patent US20110020369A1.

Columns and labels:
hTSLPR-Ig fusion (human) [1] = target: hTSLPR-Ig fusion (human) (UniProt Q9HC73); test: SPR BIAcore T100, huTSLPR-hIg amine-coupled on CM5, antibody as analyte, bivalent analyte model, n = 2
hTSLPR-Ig fusion (human) [2] = target: hTSLPR-Ig fusion (human) (UniProt Q9HC73); test: SPR BIAcore T100, huTSLPR-hIg amine-coupled on CM5, antibody as analyte, bivalent analyte model, n = 6
hTSLPR-ECTO-His (human) = test: ELISA, plate coated with TSLPR 50 ng/well, HRP goat anti-mouse detection

Chain of hTSLPR-Ig fusion (human) (Q9HC73 23-231): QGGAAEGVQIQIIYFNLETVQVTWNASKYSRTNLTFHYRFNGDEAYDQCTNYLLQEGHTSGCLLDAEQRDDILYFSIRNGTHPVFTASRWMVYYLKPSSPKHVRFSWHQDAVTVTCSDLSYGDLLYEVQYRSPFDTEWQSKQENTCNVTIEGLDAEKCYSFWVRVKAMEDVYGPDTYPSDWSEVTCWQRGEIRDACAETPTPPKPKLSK

Kd (hTSLPR-Ig fusion (human) [1])	koff (hTSLPR-Ig fusion (human) [1])	kon (hTSLPR-Ig fusion (human) [1])	Kd (hTSLPR-Ig fusion (human) [2])	koff (hTSLPR-Ig fusion (human) [2])	kon (hTSLPR-Ig fusion (human) [2])	EC50 (hTSLPR-ECTO-His (human))	Binder
0.102 nM	0.000136 s⁻¹	1.34e+06 M⁻¹ s⁻¹	–	–	–	–	chimeric anti-human TSLPR 13H5 antibody (antibody, V domains shown, not shown: a dimerising Fc or GST) VH: QVLLKQSGPSLVQPSQSLSITCTVSGFSLSRYGVHWVRQSPGKGLEWLGVIWRSGSTDYNAAFMSRLSITQDNSKSQVFFNMNSLQSDDSAIYYCAKKAFYVMDYWGQGTSVTVSS VL: DIQMTQTTSSLSASLGDRVTISCRASQDISIYLNWYQQKPDGTVKLLIYYTSRLHSGVPSRFSGSGSGTNFSLTITNLEEEDIATYFCQQGNTLPWTFGGGTKLEIKR
–	–	–	0.037 nM	7.8e-05 s⁻¹	2.12e+06 M⁻¹ s⁻¹	0.0106 µg/mL	mouse anti human TSLPR antibody 13H5 (antibody, mouse IgG1, V domains shown) VH: QVLLKQSGPSLVQPSQSLSITCTVSGFSLSRYGVHWVRQSPGKGLEWLGVIWRSGSTDYNAAFMSRLSITQDNSKSQVFFNMNSLQSDDSAIYYCAKKAFYVMDYWGQGTSVTVSS VL: DIQMTQTTSSLSASLGDRVTISCRASQDISIYLNWYQQKPDGTVKLLIYYTSRLHSGVPSRFSGSGSGTNFSLTITNLEEEDIATYFCQQGNTLPWTFGGGTKLEIKR
0.008 nM	1.5e-05 s⁻¹	1.81e+06 M⁻¹ s⁻¹	–	–	–	–	rat anti-human TSLPR antibody 18B3 (antibody, V domains shown) VH: EVQLVESGGGLVQPGRSLRLSCVASGFTFNNYWMTWVRQAPGKGLEWVASITDTSGRTYYPDSVKGRFTISRDHAKSTLYLQMNSLRPEDTATYYCTKTLGGIPRDWGQGVMVTVSS VL: NIQLTQSPSLLSASVGDRVTLSCKGSQNINNYLAWYQQKLGEAPKLLIFKTNILQTGIPLRFSGSGSGTDYTLTISSLHCEDLATYYCYQFNNGFTFGPGTKLELKR
0.079 nM	0.00012 s⁻¹	1.52e+06 M⁻¹ s⁻¹	–	–	–	0.0162 µg/mL	mouse anti-human TSLPR antibody 70E8 (antibody, mouse IgG1, V domains shown) VH: DVQLQESGPDLVKPSQSLSLTCTVTNYSITSGYSWPWIRQFPGNKLEWLGYIHSSGRTNYNPSLKSRISITRDTSKNQFFLQLNSVTPEDTATYYCARSQLGLVFFAYWGQGTLVTVSA VL: DIVMTQSQKFMSTSVGDRVSVTCKASQSVGANVAWYQQIPGHSPKVLIYSASYRFSGVPDRFTGSGSGTDFTLTISNVQSEDLAEYFCQQYNSYPYTFGGGTKLEIRR
